Experimental data: patent US20260092121A1 (TALEM THERAPEUTICS, published 2026)

B1: anti-TrkB clone 3F06 (antibody, V domains shown)
VH: QMQLVQSGAEVKKPGESLKISCKGSGYSFSTNWIGWVRQMPGKGLEWMGIIYPGDSDTRYSPSFQGQVTISADKSISTAYLQWSSLKASDTAMYYCARFYDSSGNDYWGQGTLVTVSS
VL: QSVLTQPPSVSVSPGQTASITCSGDKLGDKYASWYQQKPGQSPVLVIFQDNKRPSGIPERFSGSNSGNTATLTISGTQAMDEADYYCQTWDSSTAIFGGGTKLTVL
notes: full-length IgG
B2: anti-TrkB clone 1E07 (antibody, V domains shown)
VH: QVQLVQSGAEVKKPGESLRISCKGSGYSFTNNWINWVRQMPGKGLEWMGRIDPDDSYTNYSPSFQGHVIFSADKSSNTVYLQWSSLEASDTAMYYCARRAQGGGGYDYWGQGTLVTVSS
VL: QSVLTQPPSVSGAPGQRVTISCTGSSSNIGAGFNVHWYQQVAGLAPKLLIHDNINRPSGVPDRFSGSKSGASASLTITGLQAEDEADYYCQSYDSSLSGWFAFGTGTKVTVL
notes: full-length IgG
B3: anti-TrkB clone 3H11 (antibody, V domains shown)
VH: QVQLQQSGPGLVKPSQTLSLTCAISGDSVSSNSAVWNWIRQSPSRGLEWLGRTYYRSKWYTDFAVSVKSRITINPDTSKNQFSLQLNSVTPEDTAVYYCARGRNGMDVWGQGTMVTVST
VL: LPVLTQPPSASGTPGQRVTISCSGSSSNIGHKYVYWYQQLPGAAPKLLIYRNNQRPSGVPDRFSASKSGTSASLAISGLRSEDEADYYCATWDDSLNGVVFGGGTKVTVL
notes: full-length IgG
B4: anti-TrkB clone 6B04 (antibody, V domains shown)
VH: QVQLVQSGAEVKKPGESLKISCKGSGYSFTSYWIGWVRQMPGKGLEWMGIIYPGDSDTRYSPSFQGQVTISADKSISTAYLQWSSLKASDTAIYYCARLGGAMDVWGQGTLVTVSS
VL: SYELMQPPSLSVSPGQTASITCSGDKLGDKYVSWYQQRPGQSPVLVMYQDKKRPSGIPKRFSGSNSGNTATLTISGTQAMDEADYYCAAWDDSLNGYYVFGTGTQLTVL
notes: full-length IgG
B5: anti-TrkB clone 6E08 (antibody, V domains shown)
VH: QVQLVQSGGGVVQPGRSLRLSCAASGFTFSSYAMHWVRQAPGKGLEWVAVISYDGSNKYYADSVKGRFTISRDNSKNTLYLQMNSLRAEDTAVYYCARAFRRYDAFDIWGQGTLVTVSS
VL: DIQMTQTPLSLSVTLGQPASISCRSSQGLVYSDGNTYLNWFQQRPGQSPRRLIYKVSNRDSGVPDRFSGSGSGTDFTLKISRVEAEDVGVYYCMQGTHWPPAFGQGTKVEIK
notes: full-length IgG
B6: anti-TrkB clone 6B11 (antibody, V domains shown)
VH: QVQLQQSGAGLVKASQTLALTCAISGDSVSSNSAAWNWIRQSPSRGLEWLGRTYYRSKWYNDYAVSVKSRITINPDTSTNQFSLQLNSVTPEDTAVYYCTRGTGDKRAFDYWGQGTLVTVSS
VL: QSVLTQPPSASGTPGQRVTISCSGSSSNIGSYFVSWYQQLPGTAPKLLIYRNDKRPSGVPERFSGSKSGTSASLAISGLQSEDEADYYCAAWDDSLSGRIFGGGTKLTVL
notes: full-length IgG

Key:
[1] = biological target: human TrkA-His (human, UniProt P04629 33-417, limits assumed); experiment: ELISA
human TrkA-His, sequence (P04629 33-417 limits assumed): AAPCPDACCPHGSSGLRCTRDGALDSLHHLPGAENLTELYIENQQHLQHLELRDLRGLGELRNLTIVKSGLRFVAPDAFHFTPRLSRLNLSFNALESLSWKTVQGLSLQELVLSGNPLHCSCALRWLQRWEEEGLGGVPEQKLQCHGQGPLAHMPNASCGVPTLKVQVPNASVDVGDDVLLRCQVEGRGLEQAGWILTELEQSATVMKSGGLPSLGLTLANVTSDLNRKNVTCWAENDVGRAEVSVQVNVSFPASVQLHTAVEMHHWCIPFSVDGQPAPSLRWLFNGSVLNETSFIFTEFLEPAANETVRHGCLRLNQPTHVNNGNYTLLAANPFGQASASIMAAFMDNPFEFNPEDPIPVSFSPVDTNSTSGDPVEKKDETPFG

[2] = biological target: human TrkC-His (human, UniProt Q16288 32-429); experiment: ELISA
[3] = biological target: TrkB in PathHunter eXpress TrkB Functional Assay cells (modified U2OS); experiment: cell-based or functional assay
[4] = biological target: T1, mouse TrkB-ECD-GST (mouse, UniProt P15209 32-429); experiment: ELISA
T1 construct: extracellular domain; in-house fusion, HEK293; also called mTrkB-ECD-GST; mTrkB (ELISA); not shown: glutathione S-transferase (GST) fusion part

[5] = biological target: T2, human TrkB-His (human, UniProt Q16620 32-430); experiment: BLI off-rate, mAb captured
T2 construct: in-house fusion of the TrkB ECD with poly-His, HEK293; also called huTrkB-His; hTrkB-His; not shown: poly-His tag

Binder | binding result [1] | binding result [2] | TrkB activation (EC50) [3] [mg/L] | binding result [4] | koff [5] [s⁻¹]
B1 | no binding (tested: up to 10 µg/mL) | no binding (tested: up to 10 µg/mL) | 0.14 | binds | 0.00479
B2 | no binding (tested: up to 10 µg/mL) | no binding (tested: up to 10 µg/mL) | 0.13 | binds | 0.00613
B3 | no binding (tested: up to 10 µg/mL) | no binding (tested: up to 10 µg/mL) | 0.02 | binds | 0.0057
B4 | no binding (tested: up to 10 µg/mL) | no binding (tested: up to 10 µg/mL) | 0.039 | binds | 0.00678
B5 | no binding (tested: up to 10 µg/mL) | no binding (tested: up to 10 µg/mL) | 4.2 | binds | 0.0064
B6 | no binding (tested: up to 10 µg/mL) | no binding (tested: up to 10 µg/mL) | 0.11 | binds | 0.00687
